This experiment addresses Stargazin-derived probe 12 (Rattus norvegicus, UniProt Q71RJ2, N-acetyl, X=Dab(4-DMAP), NRR added). As to the kind of experiment: fluorescence titration.

The values that follow come from article PMC2828873 (2009).

B1: Shank3 PDZ (protein)
chain: DDKVAILQKRDHEGFGFVLRGAKAETPIEEFTPTPAFPALQYLESVDVEGVAWKAGLRTGDFLIEVNGVNVVKVGHKQVVGLIRQGGNRLVMKVVSVTRKP
B1 registered a Kd of 10 µM.

By Kd is commonly meant the equilibrium constant for the complex coming apart. The low end stands for tighter binding, the high end for weaker binding.
